Test results: PMC8282340 (2021)
Where two headings read alike, the source gives them in different places.

Legend:
Assay in all cases: FP
B1-3 [1] = target: B1-3
B3-1 [2] = target: B3-1
B2-1 [3] = target: B2-1
B4-2 [4] = target: B4-2
GST only = GST only (Schistosoma japonicum)
[5] = target: human BCL-2 fused to the N-terminal half of T7 RNAP (human)
L4-3 [6] = target: L4-3
L3-1 [7] = target: L3-1
L3-3 [8] = target: L3-3
hsMCL-1 variant L1-1 [9] = target: T1, hsMCL-1 variant L1-1 (human, UniProt Q07820)
L4-3 [10] = target: L4-3; remark: listed apart in the source
L3-1 [11] = target: L3-1; remark: listed apart in the source
L3-3 [12] = target: L3-3; remark: listed apart in the source
hsMCL-1 variant L1-1 [13] = target: T1, hsMCL-1 variant L1-1; remark: listed apart in the source
B1-3 [14] = target: B1-3; remark: listed apart in the source
B3-1 [15] = target: B3-1; remark: listed apart in the source
B2-1 [16] = target: B2-1; remark: listed apart in the source
B4-2 [17] = target: B4-2; remark: listed apart in the source

Sequence of human BCL-2 fused to the N-terminal half of T7 RNAP (human) (chain, as listed by the source): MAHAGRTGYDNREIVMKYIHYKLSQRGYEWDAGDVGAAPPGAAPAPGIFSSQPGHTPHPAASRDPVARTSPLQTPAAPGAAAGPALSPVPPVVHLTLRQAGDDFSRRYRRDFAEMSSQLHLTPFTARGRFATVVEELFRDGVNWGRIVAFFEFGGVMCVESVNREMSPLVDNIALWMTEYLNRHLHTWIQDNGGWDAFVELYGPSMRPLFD

B1: fluorescent NOXA peptide (peptide)
chain: AELEVECATQLRRFGDKLNFRQKLL
HELM: PEPTIDE1{[O=C1OC2(c3ccc(O)cc3Oc3cc(O)ccc32)c2ccc(C(=O)[*:2])cc21].[O=C(CCCCCN[*:1])[*:2]].A.E.L.E.V.E.C.A.T.Q.L.R.R.F.G.D.K.L.N.F.R.Q.K.L.L.[am]}$$$$V2.0
SMILES: CC(C)C[C@H](NC(=O)[C@H](CC(C)C)NC(=O)[C@H](CCCCN)NC(=O)[C@H](CCC(N)=O)NC(=O)[C@H](CCCNC(=N)N)NC(=O)[C@H](Cc1ccccc1)NC(=O)[C@H](CC(N)=O)NC(=O)[C@H](CC(C)C)NC(=O)[C@H](CCCCN)NC(=O)[C@H](CC(=O)O)NC(=O)CNC(=O)[C@H](Cc1ccccc1)NC(=O)[C@H](CCCNC(=N)N)NC(=O)[C@H](CCCNC(=N)N)NC(=O)[C@H](CC(C)C)NC(=O)[C@H](CCC(N)=O)NC(=O)[C@@H](NC(=O)[C@H](C)NC(=O)[C@H](CS)NC(=O)[C@H](CCC(=O)O)NC(=O)[C@@H](NC(=O)[C@H](CCC(=O)O)NC(=O)[C@H](CC(C)C)NC(=O)[C@H](CCC(=O)O)NC(=O)[C@H](C)NC(=O)CCCCCNC(=O)c1ccc2c(c1)C(=O)OC21c2ccc(O)cc2Oc2cc(O)ccc21)C(C)C)[C@@H](C)O)C(N)=O
Kd (B1-3 [1]): 137 nM
Kd (B3-1 [2]): 53.4 nM
Kd (B2-1 [3]): 340 nM
Kd (B4-2 [4]): 186 nM
Kd (GST only): > 1000 nM
Kd [5]: 948 nM
Kd (L4-3 [6]): > 1000 nM
Kd (L3-1 [7]): 949 nM
Kd (L3-3 [8]): > 1000 nM
Kd (hsMCL-1 variant L1-1 [9]): 489 nM

B2: fluorescent BID peptide (peptide)
chain: QEDIIRNIARHLAQVGDSMDR
HELM: PEPTIDE1{[O=C1OC2(c3ccc(O)cc3Oc3cc(O)ccc32)c2ccc(C(=O)[*:2])cc21].[O=C(CCCCCN[*:1])[*:2]].Q.E.D.I.I.R.N.I.A.R.H.L.A.Q.V.G.D.S.M.D.R.[am]}$$$$V2.0
SMILES: CC[C@H](C)[C@H](NC(=O)[C@H](CC(N)=O)NC(=O)[C@H](CCCNC(=N)N)NC(=O)[C@@H](NC(=O)[C@@H](NC(=O)[C@H](CC(=O)O)NC(=O)[C@H](CCC(=O)O)NC(=O)[C@H](CCC(N)=O)NC(=O)CCCCCNC(=O)c1ccc2c(c1)C(=O)OC21c2ccc(O)cc2Oc2cc(O)ccc21)[C@@H](C)CC)[C@@H](C)CC)C(=O)N[C@@H](C)C(=O)N[C@@H](CCCNC(=N)N)C(=O)N[C@@H](Cc1c[nH]cn1)C(=O)N[C@@H](CC(C)C)C(=O)N[C@@H](C)C(=O)N[C@@H](CCC(N)=O)C(=O)N[C@H](C(=O)NCC(=O)N[C@@H](CC(=O)O)C(=O)N[C@@H](CO)C(=O)N[C@@H](CCSC)C(=O)N[C@@H](CC(=O)O)C(=O)N[C@@H](CCCNC(=N)N)C(N)=O)C(C)C
Kd (GST only): > 1000 nM
Kd [5]: 87.6 nM
Kd (L4-3 [10]): 18.7 nM
Kd (L3-1 [11]): 25.3 nM
Kd (L3-3 [12]): 9.29 nM
Kd (hsMCL-1 variant L1-1 [13]): 5.38 nM
Kd (B1-3 [14]): 7.21 nM
Kd (B3-1 [15]): 33.4 nM
Kd (B2-1 [16]): 43.3 nM
Kd (B4-2 [17]): 5.16 nM
